This note sets out measurements from patent US20190367605A1 (AstraZeneca / MedImmune, published 2019).

Experiment [1] deals with T1, human ASCT2 (system ASC amino acid transporter 2, SLC1A5) (human, UniProt Q15758 1-541).
T1 sequence (looked up): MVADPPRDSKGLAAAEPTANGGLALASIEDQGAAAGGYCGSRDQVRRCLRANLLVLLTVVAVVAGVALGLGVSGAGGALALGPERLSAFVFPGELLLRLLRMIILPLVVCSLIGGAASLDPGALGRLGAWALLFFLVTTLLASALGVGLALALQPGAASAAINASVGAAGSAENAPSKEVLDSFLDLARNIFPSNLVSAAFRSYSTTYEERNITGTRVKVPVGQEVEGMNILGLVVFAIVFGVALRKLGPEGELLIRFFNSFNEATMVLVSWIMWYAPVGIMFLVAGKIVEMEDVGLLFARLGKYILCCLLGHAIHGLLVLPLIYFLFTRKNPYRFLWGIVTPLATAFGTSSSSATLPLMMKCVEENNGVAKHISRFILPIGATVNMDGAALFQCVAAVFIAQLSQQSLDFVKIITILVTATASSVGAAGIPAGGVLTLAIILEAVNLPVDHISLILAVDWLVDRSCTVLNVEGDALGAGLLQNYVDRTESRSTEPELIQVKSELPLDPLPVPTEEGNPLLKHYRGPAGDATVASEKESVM
Description: cell-based or functional assay.

Experiment [2] deals with T1, human ASCT2 (system ASC amino acid …). Description: flow cytometry, titration of fluorophore-labelled antibody on FaDu cells. The procedure: (§1) Human, cynomolgous monkey, and CHO-derived cell lines expressing ASCT2 were utilized to assessed binding affinity and cross reactivity of ASCT2-specific antibodies. Apparent affinities were measured by titrating fluorophore labeled antibodies.
(§2) Results for human cancer cell line Ca127 are shown in FIG. 6A; results for human cancer cell line FaDu are shown in FIG. 6B; results for human cancer cell line SSC15 are shown in FIG. 6C; results for human cancer cell line WiDr are shown in FIG. 6D; results for CHOK1 cells stably expressing human ASCT2 are shown in FIG. 6E; results for CHOK1 cells stably expressing cyno ASCT2 are shown in FIG. 6F); results for cyno cancer cell line CynoMK1 are shown in FIG. 6G; and results for mock transfected CHOK1 cells are shown in FIG. 6H.
(In general: A flow cytometer gives signals particle by particle.)

For experiment [3] the target is unchanged. Description: flow cytometry, titration of fluorophore-labelled antibody on Cal27 cells. On the procedure: as §1, §2
The target is the same in experiment [4]. Kind of experiment: flow cytometry, titration of fluorophore-labelled antibody on CHOK1 cells stably expressing human ASCT2. The procedure:
as §1, §2

Experiment [5] deals with T2, cynomolgus monkey ASCT2 (cynomolgus monkey (Macaca fascicularis), UniProt G7PXZ3 1-542).
T2 construct: whole, on cells; Present on stably transfected CHOK1 cells or endogenously on the cyno cell line CynoMK1; also called cyno ASCT2; CynoASCT2
T2 sequence: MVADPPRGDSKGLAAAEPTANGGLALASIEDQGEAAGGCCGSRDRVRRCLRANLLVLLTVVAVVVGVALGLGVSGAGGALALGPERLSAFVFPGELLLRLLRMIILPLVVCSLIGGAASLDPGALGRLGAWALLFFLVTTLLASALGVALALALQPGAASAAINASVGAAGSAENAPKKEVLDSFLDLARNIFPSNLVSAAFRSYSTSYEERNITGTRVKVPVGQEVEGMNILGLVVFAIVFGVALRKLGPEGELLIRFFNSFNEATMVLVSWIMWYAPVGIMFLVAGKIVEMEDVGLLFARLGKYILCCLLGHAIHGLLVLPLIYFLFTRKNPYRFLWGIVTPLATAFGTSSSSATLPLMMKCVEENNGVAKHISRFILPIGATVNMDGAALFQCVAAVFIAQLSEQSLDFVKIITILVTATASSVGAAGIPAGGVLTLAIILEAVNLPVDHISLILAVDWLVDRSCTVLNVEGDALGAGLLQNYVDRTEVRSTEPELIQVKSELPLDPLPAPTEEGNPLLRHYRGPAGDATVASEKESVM
Description: flow cytometry, titration of fluorophore-labelled antibody on cyno cell line Cyno MK1. The procedure: as §1, §2

Experiment [6] addresses T2, cynomolgus monkey ASCT2. Description: flow cytometry, titration of fluorophore-labelled antibody on CHOK1 cells stably expressing cyno ASCT2. The procedure: as §1, §2
The target in experiment [7] is T1, human ASCT2 (system ASC amino acid …). Description: flow cytometry, titration of fluorophore-labelled antibody on WiDr cells. On the procedure: as §1, §2
For experiment [8] the target is unchanged. Kind of experiment: flow cytometry, titration of fluorophore-labelled antibody on SSC15 cells. On the procedure: as §1, §2
In experiment [9] the target is T2, cynomolgus monkey ASCT2. Kind of experiment: binding to CHOK1 cells stably expressing cyno ASCT2; clones conjugated to tubulysin AZ1508 per paragraph 353.
Experiment [10] has as its target T1, human ASCT2 (system ASC amino acid …). Kind of experiment: binding to CHOK1 cells stably expressing human ASCT2; clones conjugated to tubulysin AZ1508 per paragraph 353.
Experiment [11] shares this target. Kind of experiment: cell-based or functional assay. This is another data set of the same source.
Experiment [12] has as its target T2, cynomolgus monkey ASCT2. Description: cell-based or functional assay.
The target of experiment [13] is T1, human ASCT2 (system ASC amino acid …). Kind of experiment: cell-based or functional assay. This is another data set of the same source.
Experiment [14] has the same target. Description: flow cytometry on WiDr cells and CHO cells expressing HuASCT2. An excerpt:
The amino acid sequences of the VH and VL domains for 17c10 were aligned to the known human germline sequences in the VBASE database, and the closest germline was identified by sequence similarity. For the VH domain, this was IgVh4-34*01; for the VL domain, it was IgKv1-5*03. For 17c10, the germlining process involved reverting 1 framework residue in the VH domain and 5 residues in the VL domain. In the VH domain, the reversion mutation was at Kabat position 82a, where threonine (T) was reverted to serine (S). In the VL domain, the mutations were at Kabat position 13, 21, 39, 70, and 76 where at Kabat position 13 threonine (T) was reverted to alanine (A); at Kabat position 21 leucine (L) was reverted to isoleucine (I); at Kabat position 39 Asparagine (N) was reverted to lysine (K); at Kabat position 70 aspartate (D) was reverted to glutamate (E), and at Kabat position 76 threonine (T) was reverted to serine (S). These changes were made by synthesizing VH and VL domains with these mutations and replacing existing VH and VL using restriction digestion and ligation. Both the germlined and original (non-germlined) 17c10 were expressed as IgGs, and their affinity to multiple ASCT2-expressing cell lines was assessed by flow cytometry.

B1: anti-ASCT2 17C10 classically conjugated to tubulysin AZ1508 (antibody, human IgG1, V domains shown)
VH: QVQLQQWGAGLLKPSETLSLTCAVYGGSFSGYYWSWIRQPPGKGLEWIGEIHHSGGANYNPSLKSRVTISVDTSKNQFSLKLTSVTAADTAVYYCARGQGKNWHYDYFDYWGQGTLVTVSS
VL: DIQMTQSPSTLSTSVGDRVTLTCRASQSIRSWLAWYQQNPGKAPKLLIYKASILKIGVPSRFSGSGSGTDFTLTITSLQPDDFATYYCQQYYSYSRTFGQGTKVEIK
modifications: tubulysin AZ1508 conjugated classically (native cysteine residues, thiol-maleimide linkage); positions not given
As to B1, in experiment [1], the “IC50 (ng/ml), ADC-mediated cytotoxic killing, SW48 cells, CellTiter-Glo, 72 h” value was found to be 46 ng/mL.

B2: anti-ASCT2 antibody 1e8 (original) (antibody, V domains shown)
VH: QVQLQQWGAGLLKPSETLSLTCAVYGGSFSGYYWSWIPQPPGKGVEWIGEINHSGSTNYNPSLKSRVTISSDTSKNQFSLKLTSVTAADTAVYYCARGQGKNWNYDYFDYWGQGTLVTVSS
VL: DIQMTQSPSTLSASVGDRVTLTCRASQSIRSWLAWYQQKPGKAPKLLIYKASSLKSGVPSRFSGSGSGTDFTLTISSLQPDDFATYYCQQYYSFSRTFGQGTKVEIK
notes: also called ASCT2 mAb 1e8
Turning to B2, the EC50 in experiment [2] was 6.8 nM; in [3], 13 nM; in experiment [4], 8.1 nM; with cynomolgus monkey ASCT2 [5], 14.8 nM; with cynomolgus monkey ASCT2 [6], 28.4 nM; in experiment [7] it was 5.8 nM. In addition, the EC50 in experiment [8] worked out at 8.8 nM.

B3: anti-ASCT2 1E8 classically conjugated to tubulysin AZ1508 (antibody, human IgG1, V domains shown)
VH: QVQLQQWGAGLLKPSETLSLTCAVYGGSFSGYYWSWIPQPPGKGVEWIGEINHSGSTNYNPSLKSRVTISSDTSKNQFSLKLTSVTAADTAVYYCARGQGKNWNYDYFDYWGQGTLVTVSS
VL: DIQMTQSPSTLSASVGDRVTLTCRASQSIRSWLAWYQQKPGKAPKLLIYKASSLKSGVPSRFSGSGSGTDFTLTISSLQPDDFATYYCQQYYSFSRTFGQGTKVEIK
modifications: tubulysin AZ1508 conjugated classically (native cysteine residues, thiol-maleimide linkage); positions not given
For B3, the “IC50 (ng/ml), ADC-mediated cytotoxic killing, SW48 cells, CellTiter-Glo, 72 h” value in experiment [1] stood at 34.8 ng/mL.

B4: anti-ASCT2 antibody 17c10 conjugated to tubulysin AZ1508 (17c10-AZ1508, Example 4) (antibody, V domains shown)
VH: QVQLQQWGAGLLKPSETLSLTCAVYGGSFSGYYWSWIRQPPGKGLEWIGEIHHSGGANYNPSLKSRVTISVDTSKNQFSLKLTSVTAADTAVYYCARGQGKNWHYDYFDYWGQGTLVTVSS
VL: DIQMTQSPSTLSTSVGDRVTLTCRASQSIRSWLAWYQQNPGKAPKLLIYKASILKIGVPSRFSGSGSGTDFTLTITSLQPDDFATYYCQQYYSYSRTFGQGTKVEIK
modifications: tubulysin AZ1508 conjugated; mode and site of conjugation not stated for these experiments
notes: Antibody-drug conjugate; also called 17c10-ADC; ASCT2-ADC
In the experiment with cynomolgus monkey ASCT2 [9], B4 came in with an EC50 of 9.6 nM. Also, in [10], the EC50 is 8.6 nM. For the same molecule, the “Cytotoxicity IC50 (ng/ml), CHOK1 cells stably expressing human ASCT2” value in [11] was determined as 5.53 ng/mL. Moreover, the “Cytotoxicity IC50 (ng/ml), CHOK1 cells stably expressing cyno ASCT2” value in the experiment with cynomolgus monkey ASCT2 [12] amounted to 8.59 ng/mL. In addition, in experiment [13], the “IC50 (ng/ml), cytotoxic killing of SKMEL-2 cells with ASCT1-shRNA1” value came out at 7.59 ng/mL; the “IC50 (ng/ml), cytotoxic killing of SKMEL-2 cells with ASCT1-shRNA2” value is 4.96 ng/mL; the “IC50 (ng/ml), cytotoxic killing of SKMEL-2 cells with ASCT2-shRNA” value worked out at 205 ng/mL; the “IC50 (ng/ml), cytotoxic killing of SKMEL-2 cells with NTshRNA” value stood at 14.3 ng/mL.

B5: anti-ASCT2 antibody 1e8 conjugated to tubulysin AZ1508 (Example 4) (antibody, V domains shown)
VH: QVQLQQWGAGLLKPSETLSLTCAVYGGSFSGYYWSWIPQPPGKGVEWIGEINHSGSTNYNPSLKSRVTISSDTSKNQFSLKLTSVTAADTAVYYCARGQGKNWNYDYFDYWGQGTLVTVSS
VL: DIQMTQSPSTLSASVGDRVTLTCRASQSIRSWLAWYQQKPGKAPKLLIYKASSLKSGVPSRFSGSGSGTDFTLTISSLQPDDFATYYCQQYYSFSRTFGQGTKVEIK
modifications: tubulysin AZ1508 conjugated; mode and site of conjugation not stated for these experiments
notes: Antibody-drug conjugate; also called 1e8 conjugated to tubulysin 1508
Take B5: the values for the EC50 (with cynomolgus monkey ASCT2 [9]; in experiment [10]) were 28.4 nM and 8.1 nM, respectively. For the same molecule, the “Cytotoxicity IC50 (ng/ml), CHOK1 cells stably expressing human ASCT2” value in experiment [11] turned out to be 20.7 ng/mL. The “Cytotoxicity IC50 (ng/ml), CHOK1 cells stably expressing cyno ASCT2” value with cynomolgus monkey ASCT2 [12] is 140 ng/mL.

B6: germlined 17c10 antibody (antibody, V domains shown)
VH: QVQLQQWGAGLLKPSETLSLTCAVYGGSFSGYYWSWIRQPPGKGLEWIGEIHHSGGANYNPSLKSRVTISVDTSKNQFSLKLSSVTAADTAVYYCARGQGKNWHYDYFDYWGQGTLVTVSS
VL: DIQMTQSPSTLSASVGDRVTITCRASQSIRSWLAWYQQKPGKAPKLLIYKASILKIGVPSRFSGSGSGTEFTLTISSLQPDDFATYYCQQYYSYSRTFGQGTKVEIK
notes: also called 17c10 germlined antibody
In the case of B6, the binding result in [14] is “binds”.

Broadly, the EC50 is the concentration that produces a half-maximal response.
